From article PMC6326798 come the findings set out here.

To fix the notation:
T1: GST-ctCENP-I^NT
T1 chain: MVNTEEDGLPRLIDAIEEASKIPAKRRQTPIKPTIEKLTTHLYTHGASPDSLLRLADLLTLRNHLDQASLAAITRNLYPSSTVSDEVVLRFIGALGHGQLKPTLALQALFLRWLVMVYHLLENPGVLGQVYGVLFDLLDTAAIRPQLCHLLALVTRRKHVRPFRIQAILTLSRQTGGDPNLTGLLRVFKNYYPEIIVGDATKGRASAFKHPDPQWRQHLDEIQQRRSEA

T2: GST-thCENP-K^ΔN75
T2 chain: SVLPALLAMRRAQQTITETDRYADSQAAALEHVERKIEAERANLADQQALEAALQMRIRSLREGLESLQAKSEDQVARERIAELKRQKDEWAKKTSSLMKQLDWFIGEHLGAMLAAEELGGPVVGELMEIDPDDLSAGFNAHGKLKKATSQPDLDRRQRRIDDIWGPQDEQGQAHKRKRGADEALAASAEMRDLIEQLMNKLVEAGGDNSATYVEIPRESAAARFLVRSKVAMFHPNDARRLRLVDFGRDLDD

T3: GST-thCENP-K^FL (full-length T. terrestris CENP-K with N-terminal GST)
T3 chain: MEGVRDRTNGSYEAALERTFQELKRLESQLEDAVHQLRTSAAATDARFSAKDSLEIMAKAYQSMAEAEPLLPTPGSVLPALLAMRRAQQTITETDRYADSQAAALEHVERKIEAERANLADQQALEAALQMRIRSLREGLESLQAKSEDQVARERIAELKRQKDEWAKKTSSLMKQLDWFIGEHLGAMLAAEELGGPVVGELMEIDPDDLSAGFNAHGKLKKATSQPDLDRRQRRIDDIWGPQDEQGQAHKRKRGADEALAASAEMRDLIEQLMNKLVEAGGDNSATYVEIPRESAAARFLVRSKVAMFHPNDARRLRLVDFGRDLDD

B1: full-length T. terrestris CENP-H (thCENP-H) R220E (protein)
chain: MAATASTATPTPLPHFTEREASVLALYDRLRQLQLELALLTSQRSHGVIETSASRRAENDLAVDEARLLEARATLDLRDSVVENVVTLQPILNAVHHATHASPLERDLLPYTEQRDATATKVASLCADLDSAWGRLAELETESLRATQRNMELASEVLRLAAGTNDKTPSQLEGGRLEMELAGHEAEMKSNRRRWRIMKGAASAIVAGSGIDWVRDERLEDLVLDLPD
B2: full-length T. terrestris CENP-H (thCENP-H) R220E; L224A (protein)
chain: B1 chain with L224A
B3: full-length T. terrestris CENP-H (thCENP-H) I211A; L219A (protein)
chain: B1 chain with I211A, L219A, E220R
B4: full-length T. terrestris CENP-H (thCENP-H) I205A; L219A (protein)
chain: B1 chain with I205A, L219A, E220R
B5: full-length T. terrestris CENP-H (thCENP-H) I205A (protein)
chain: B1 chain with I205A, E220R
B6: full-length T. terrestris CENP-H (thCENP-H) I205A; I211A (protein)
chain: B1 chain with I205A, I211A, E220R
B7: full-length T. terrestris CENP-H (thCENP-H) L224A (protein)
chain: B1 chain with E220R, L224A
B8: full-length T. terrestris CENP-H (thCENP-H) W213A (protein)
chain: B1 chain with W213A, E220R
B9: full-length T. terrestris CENP-H (thCENP-H) I211A (protein)
chain: B1 chain with I211A, E220R
B10: full-length T. terrestris CENP-H (thCENP-H) L219A (protein)
chain: B1 chain with L219A, E220R

Where a chain is given by its changes, count along the chain named. Names may count otherwise.

One assay addresses full-length T. terrestris CENP-K (thCENP-K) (Thielavia terrestris). Description: AUC; sedimentation velocity, 4°C, 42 000 rpm, PBS; continuous c(s) model in SEDFIT.
Details: not given
The term stoichiometry N denotes a count of units in the complex or per binding partner. As for “full-length T. terrestris CENP-H (thCENP-H) (natural protein)”, the stoichiometry N was 1.

The target in another assay is thCENP-H/K complex (full-length thCENP-H with full-length thCENP-K) (Thielavia terrestris). Described as above.
Details: not given
In turn, “C. thermophilum CENP-I residues 1-229 (ctCENP-I^NT), untagged (domain or fragment)” returned a stoichiometry N of 1.

Another assay concerns the target T1, GST-ctCENP-I^NT. In words: GST pull-down. The settings on record: chain shown with the change;; parent: est. 1.0; read off a plot.
With B1, the ratio to parent is 0.32.
On to B2, for which the ratio to parent stood at 0.13.
As for B3, the ratio to parent turned out to be 1.2.
Consider B4, for which the ratio to parent stood at 1.1.
Still for that read-out and setting: in the case of B5 it was 1.1; in that of B6, 1.1.
Still for that read-out and setting: then B7, with 0.36; and B8, with 1.2.
Regarding B9, the ratio to parent worked out at 1.2.

The target of the next assay is T2, GST-thCENP-K^ΔN75. In words: GST pull-down. To be noted: chain shown with the change;; parent: est. 1.0; read off a plot.
B10: the ratio to parent worked out at 0.68.
As to B1, the ratio to parent was found to be 1.1.
Same read-out and setting: in the case of B2 it was 1.1; in that of B3, 0.46; in that of B4, 0.36.
As to B5, the ratio to parent was 0.65.
Still for that read-out and setting: in the case of B6 it was 0.33; in that of B7, 1.1.
On to B9, for which the ratio to parent worked out at 0.7.

A further assay deals with T3, GST-thCENP-K^FL (full-length T. …). In words: GST pull-down. To be noted: chain shown with the change;; parent: est. 1.0; read off a plot.
Consider B10, for which the ratio to parent worked out at 0.89.
Same read-out and setting: then B1, with 0.97.
Still for that read-out and setting: in the case of B4 it was 0.9; in that of B5, 0.94.
In the case of B6, the ratio to parent worked out at 0.88.
For B8, the ratio to parent turned out to be 0.97.
As to B9, the ratio to parent was 0.95.

The target of another assay is C. thermophilum CENP-I residues 1-229 (ctCENP-I^NT), untagged. Description: GST pull-down. The settings on record: in the presence of thCENP-K; parent: est. 1.0; read off a plot.
Turning to GST-thCENP-H WT R220E; L224A, the ratio to parent turned out to be 0.2.
As to GST-thCENP-H WT I205A; L219A, the ratio to parent came to 0.63.
